Consider 1 substance from patent publication US20240041922A1, “METHODS AND COMPOSITIONS” (Monash University, priority 2020, published 2024).

For this test, the target named is zebrafish Ccr5 (Ccr5-like, on pax3a+ muscle stem cells of larval zebrafish) (zebrafish). Kind of test: cell-based or functional assay.

In the case of “recombinant murine CCL8/MCP-2 (PeproTech) (from UniProt Q9Z121 24-97) (ligand)”, the cell proliferation external to the site of injury in larval zebrafish (EdU) is 43% and the wound site proliferation in larval zebrafish (EdU) was found to be 28.3%.
